Reference: patent US20120207760A1
Where “and” joins values, the source holds several entries; their conditions need not be identical. Equal entries are not always repeated.

How the values were obtained:
[1] = target: hemagglutinin (HA) on live influenza A virus A/California/4/09 H1N1 (Influenza A virus A/California/04/2009 (H1N1)); test: cell-based or functional assay
[2] = target: hemagglutinin (HA) on live influenza A virus A/Wisconsin/67/05 H3N2 (Influenza A virus A/Wisconsin/67/2005 (H3N2)); test: cell-based or functional assay
[3] = target: hemagglutinin (HA) on live influenza A virus A/Solomon Islands/3/06 H1N1 (Influenza A virus A/Solomon Islands/3/2006 (H1N1)); test: cell-based or functional assay
[4] = target: hemagglutinin (HA) of influenza A/Solomon Islands/3/06 H1N1 (Influenza A virus A/Solomon Islands/3/2006 (H1N1)); test: ELISA, inactivated whole virions coated; transfection supernatant set 4
[5] = target: hemagglutinin (HA) of influenza A/Japan/305/57 H2N2 (Influenza A virus A/Japan/305/1957 (H2N2)) (UniProt P03451); test: as above
[6] = target: recombinant homotrimeric HA, A/Wisconsin/67/05 H3N2 (Influenza A virus A/Wisconsin/67/05 (H3N2)); test: trimeric HA microarray, transfection set 2
[7] = target: recombinant homotrimeric HA, A/common magpie/Hong Kong/5052/07 H5N1 (Influenza A virus A/common magpie/Hong Kong/5052/07 (H5N1)); test: trimeric HA microarray, transfection set 2
[8] = target: recombinant homotrimeric HA, A/Hong Kong/2108/03 H9N2 (Influenza A virus A/Hong Kong/2108/03 (H9N2)); test: trimeric HA microarray, transfection set 2
[9] = target: recombinant homotrimeric HA, A/northern shoveler/California/HKWF115/07 (Influenza A virus A/northern shoveler/California/HKWF115/2007 (H6N1)); test: trimeric HA microarray, transfection set 2
[10] = target: recombinant homotrimeric HA, A/Hong Kong/1073/99 H9N2 (Influenza A virus A/Hong Kong/1073/99 (H9N2)); test: trimeric HA microarray, transfection set 2
[11] = target: recombinant homotrimeric HA, A/swine/Ontario/01911-2/99 H4N6 (Influenza A virus A/swine/Ontario/01911-2/99 (H4N6)); test: trimeric HA microarray, transfection set 2
[12] = target: recombinant homotrimeric HA, A/duck/Yangzhou/02/05 H8N4 (Influenza A virus A/duck/Yangzhou/02/2005 (H8N4)); test: trimeric HA microarray, transfection set 2
[13] = target: recombinant homotrimeric HA, A/Solomon Islands/3/06 H1N1 (Influenza A virus A/Solomon Islands/3/06 (H1N1)); test: trimeric HA microarray, transfection set 2
[14] = target: recombinant homotrimeric HA, A/Anhui/1/05 H5N1 (Influenza A virus A/Anhui/1/05 (H5N1)); test: trimeric HA microarray, transfection set 2
[15] = target: recombinant homotrimeric HA, A/Netherlands/219/03 H7N7 (Influenza A virus A/Netherlands/219/03 (H7N7)); test: trimeric HA microarray, transfection set 2
[16] = target: recombinant homotrimeric HA, A/South Carolina/1/18 H1N1 (Influenza A virus A/South Carolina/1/18 (H1N1)); test: trimeric HA microarray, transfection set 2
[17] = target: recombinant homotrimeric HA, A/Indonesia/5/05 H5N1 (Influenza A virus A/Indonesia/5/05 (H5N1)); test: trimeric HA microarray, transfection set 2
[18] = target: recombinant homotrimeric HA, A/California/4/09 H1N1 (Influenza A virus A/California/4/09 (H1N1)); test: trimeric HA microarray, transfection set 2
[19] = target: recombinant homotrimeric HA, A/Egypt/3300-NAMRU3/08 H5N1 (Influenza A virus A/Egypt/3300-NAMRU3/08 (H5N1)); test: trimeric HA microarray, transfection set 2
[20] = target: recombinant homotrimeric HA, A/Japan/305/57 H2N2 (Influenza A virus A/Japan/305/57 (H2N2)); test: trimeric HA microarray, transfection set 2
[21] = target: recombinant homotrimeric HA, A/Vietnam/1203/04 H5N1 (Influenza A virus A/Vietnam/1203/04 (H5N1)); test: trimeric HA microarray, transfection set 2
[22] = target: recombinant homotrimeric HA, A/chicken/Vietnam/NCVD-016/08 H5N1 (Influenza A virus A/chicken/Vietnam/NCVD-016/08 (H5N1)); test: trimeric HA microarray, transfection set 2
[23] = target: hemagglutinin (HA) of influenza A/Solomon Islands/3/06 H1N1 (Influenza A virus A/Solomon Islands/3/2006 (H1N1)); test: ELISA, inactivated whole virions coated; transfection supernatant set 3
[24] = target: hemagglutinin (HA) of influenza A/Japan/305/57 H2N2 (Influenza A virus A/Japan/305/1957 (H2N2)) (UniProt P03451); test: as above
[25] = target: hemagglutinin (HA) of influenza A/Wisconsin/67/05 H3N2 (Influenza A virus A/Wisconsin/67/2005 (H3N2)); test: as above
[26] = target: recombinant homotrimeric HA, A/Wisconsin/67/05 H3N2 (Influenza A virus A/Wisconsin/67/05 (H3N2)); test: trimeric HA microarray, transfection set 3
[27] = target: recombinant homotrimeric HA, A/Hong Kong/2108/03 H9N2 (Influenza A virus A/Hong Kong/2108/03 (H9N2)); test: trimeric HA microarray, transfection set 3
[28] = target: recombinant homotrimeric HA, A/duck/Yangzhou/02/05 H8N4 (Influenza A virus A/duck/Yangzhou/02/2005 (H8N4)); test: trimeric HA microarray, transfection set 3
[29] = target: recombinant homotrimeric HA, A/Solomon Islands/3/06 H1N1 (Influenza A virus A/Solomon Islands/3/06 (H1N1)); test: trimeric HA microarray, transfection set 3
[30] = target: recombinant homotrimeric HA, A/Anhui/1/05 H5N1 (Influenza A virus A/Anhui/1/05 (H5N1)); test: trimeric HA microarray, transfection set 3
[31] = target: recombinant homotrimeric HA, A/California/4/09 H1N1 (Influenza A virus A/California/4/09 (H1N1)); test: trimeric HA microarray, transfection set 3
[32] = target: recombinant homotrimeric HA, A/Egypt/3300-NAMRU3/08 H5N1 (Influenza A virus A/Egypt/3300-NAMRU3/08 (H5N1)); test: trimeric HA microarray, transfection set 3
[33] = target: recombinant homotrimeric HA, A/chicken/Vietnam/NCVD-016/08 H5N1 (Influenza A virus A/chicken/Vietnam/NCVD-016/08 (H5N1)); test: trimeric HA microarray, transfection set 3

Which % Neutralization [1] does the source give for TCN-202 (2N9) (antibody) here?
Its % Neutralization is 0%.

And the % Neutralization [2]?
The % Neutralization was 17.8% and 0%.

What about the % Neutralization [3] of the same substance?
Its % Neutralization is 0% and 7%.

What about the OD450 [4] of the same substance?
The OD450 was 0.1 OD450.

What about the OD450 [5] of the same substance?
The OD450 was 0.08 OD450.

What about the Trimeric HA Binding RLU [6] of the same substance?
The Trimeric HA Binding RLU was 46 RLU.

What about the Trimeric HA Binding RLU [7] of the same substance?
Its Trimeric HA Binding RLU is 11 RLU.

What about the Trimeric HA Binding RLU [8] of the same substance?
Its Trimeric HA Binding RLU is 7 RLU.

And the Trimeric HA Binding RLU [9]?
Its Trimeric HA Binding RLU is 30 RLU.

What about the Trimeric HA Binding RLU [10] of the same substance?
The Trimeric HA Binding RLU was 33 RLU.

And the Trimeric HA Binding RLU [11]?
Its Trimeric HA Binding RLU is 15 RLU.

What about the Trimeric HA Binding RLU [12] of the same substance?
The Trimeric HA Binding RLU was 19 RLU.

What about the Trimeric HA Binding RLU [13] of the same substance?
The Trimeric HA Binding RLU was 16 RLU.

What about the Trimeric HA Binding RLU [14] of the same substance?
The Trimeric HA Binding RLU was 9 RLU.

And the Trimeric HA Binding RLU [15]?
The Trimeric HA Binding RLU was 26 RLU.

What about the Trimeric HA Binding RLU [16] of the same substance?
The Trimeric HA Binding RLU was 195 RLU.

What about the Trimeric HA Binding RLU [17] of the same substance?
Its Trimeric HA Binding RLU is 8 RLU.

And the Trimeric HA Binding RLU [18]?
The Trimeric HA Binding RLU was 52 RLU.

And the Trimeric HA Binding RLU [19]?
The Trimeric HA Binding RLU was 18 RLU.

What about the Trimeric HA Binding RLU [20] of the same substance?
Its Trimeric HA Binding RLU is 32 RLU.

What about the Trimeric HA Binding RLU [21] of the same substance?
Its Trimeric HA Binding RLU is 121 RLU.

What about the Trimeric HA Binding RLU [22] of the same substance?
Its Trimeric HA Binding RLU is 22 RLU.

What about the OD450 [23] of the same substance?
The OD450 was 0.1 OD450.

What about the OD450 [24] of the same substance?
Its OD450 is 0.08 OD450.

What about the OD450 [25] of the same substance?
Its OD450 is 0.08 OD450.

What about the Trimeric HA Binding RLU [26] of the same substance?
The Trimeric HA Binding RLU was 51 RLU.

And the Trimeric HA Binding RLU [27]?
Its Trimeric HA Binding RLU is 30 RLU.

What about the Trimeric HA Binding RLU [28] of the same substance?
The Trimeric HA Binding RLU was 66 RLU.

What about the Trimeric HA Binding RLU [29] of the same substance?
Its Trimeric HA Binding RLU is 57 RLU.

And the Trimeric HA Binding RLU [30]?
Its Trimeric HA Binding RLU is 33 RLU.

What about the Trimeric HA Binding RLU [31] of the same substance?
The Trimeric HA Binding RLU was 205 RLU.

And the Trimeric HA Binding RLU [32]?
The Trimeric HA Binding RLU was 63 RLU.

And the Trimeric HA Binding RLU [33]?
Its Trimeric HA Binding RLU is 14 RLU.
